# In patent US20170369572A1 (CELGENE, published 2017):
# B1: anti-CD47 antibody IgG1-parental, CHO expressed (antibody)
# VH: not shown
# VL: NIQMTQSPSAMSASVGDRVTITCKASQDIHRYLSWFQQKPGKVPKHLIYRANRLVSGVPSRFSGSGSGTEFTLTISSLQPEDFATYYCLQYDEFPYTFGGGTKVEIKRTVAAPSVFIFPPSDEQLKSGTASVVCLLNNFYPREAKVQWKVDNALQSGNSQESVTEQDSKDSTYSLSSTLTLSKADYEKHKVYACEVTHQGLSSPVTKSFNRGEC
# notes: Parental antibody as IgG1, made in CHO cells; also called IgG1-QN1-CHO
# B2: anti-CD47 antibody IgG1-13m, cell-free expressed (antibody)
# heavy: not shown
# light: MNIQMTQSPSAMSASVGDRVTITCKASQDIHRYLSWFQQKPGKVPKHLIYRANRLVSGVPSRFSGSGSGTEFTLTISSLQPEDFATYYCLQYDEFPYTFGGGTKVEIKRTVAAPSVFIFPPSDEQLKSGTASVVCLLNNFYPREAKVQWKVDNALQSGNSQESVTEQDSKDSTYSLSSTLTLSKADYEKHKVYACEVTHQGLSSPVTKSFNRGEC
# notes: IgG1 with 13 framework mutations in VH; cell-free system; also called IgG1-13m-CF
# B3: anti-CD47 antibody IgG1-5m, cell-free expressed (antibody)
# heavy: not shown
# light: B2 light
# notes: IgG1 with 5 framework mutations in VH; also called IgG1-5m-CF
# B4: anti-CD47 antibody IgG1-13mZ, cell-free expressed (antibody)
# heavy: not shown
# light: B2 light
# notes: IgG1 Z allotype with 13 framework mutations in VH (13 + 2 mutations); cell-free system; also called IgG1-13mZ-CF
# B5: anti-CD47 antibody IgG4P-5m, cell-free expressed (antibody)
# heavy: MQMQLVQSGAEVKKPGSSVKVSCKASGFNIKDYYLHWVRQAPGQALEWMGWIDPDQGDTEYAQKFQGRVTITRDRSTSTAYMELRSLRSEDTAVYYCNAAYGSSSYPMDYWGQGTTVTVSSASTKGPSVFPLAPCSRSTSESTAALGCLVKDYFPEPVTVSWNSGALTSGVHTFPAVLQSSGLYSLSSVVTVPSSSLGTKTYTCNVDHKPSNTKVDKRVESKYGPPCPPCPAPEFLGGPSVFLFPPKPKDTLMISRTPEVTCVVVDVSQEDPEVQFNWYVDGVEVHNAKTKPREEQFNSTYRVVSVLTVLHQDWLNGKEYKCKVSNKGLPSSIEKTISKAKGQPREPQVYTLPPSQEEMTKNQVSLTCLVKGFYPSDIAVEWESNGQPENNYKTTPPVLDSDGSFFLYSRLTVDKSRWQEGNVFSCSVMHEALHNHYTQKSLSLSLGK
# light: B2 light
# notes: IgG4 S228P with 5 framework mutations in VH; cell-free system; also called IgG4P-5m-CF
# B6: anti-CD47 antibody IgG4PE-5m, cell-free expressed (antibody)
# heavy: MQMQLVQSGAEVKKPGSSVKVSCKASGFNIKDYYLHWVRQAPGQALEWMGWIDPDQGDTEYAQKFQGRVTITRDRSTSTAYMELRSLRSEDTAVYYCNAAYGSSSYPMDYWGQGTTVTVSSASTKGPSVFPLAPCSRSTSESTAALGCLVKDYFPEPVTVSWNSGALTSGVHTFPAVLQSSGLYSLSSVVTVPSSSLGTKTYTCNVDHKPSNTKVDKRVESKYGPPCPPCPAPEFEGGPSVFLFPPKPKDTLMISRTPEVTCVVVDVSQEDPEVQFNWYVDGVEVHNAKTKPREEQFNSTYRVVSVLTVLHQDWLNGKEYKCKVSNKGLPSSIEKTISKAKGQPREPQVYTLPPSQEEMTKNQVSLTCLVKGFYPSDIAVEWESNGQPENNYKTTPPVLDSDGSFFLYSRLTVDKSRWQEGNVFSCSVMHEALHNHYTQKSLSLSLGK
# light: B2 light
# notes: IgG4 S228P/L235E with 5 framework mutations in VH; cell-free system; also called IgG4PE-5m-CF
# B7: anti-CD47 antibody IgG1-parental, cell-free expressed (antibody)
# heavy: not shown
# light: B2 light
# notes: Parental (AB6.12) variable domains on IgG1; cell-free system; also called IgG1-parental-CF; IgG1-CF
# B8: anti-CD47 antibody IgG4P-parental, CHO expressed (antibody)
# VH: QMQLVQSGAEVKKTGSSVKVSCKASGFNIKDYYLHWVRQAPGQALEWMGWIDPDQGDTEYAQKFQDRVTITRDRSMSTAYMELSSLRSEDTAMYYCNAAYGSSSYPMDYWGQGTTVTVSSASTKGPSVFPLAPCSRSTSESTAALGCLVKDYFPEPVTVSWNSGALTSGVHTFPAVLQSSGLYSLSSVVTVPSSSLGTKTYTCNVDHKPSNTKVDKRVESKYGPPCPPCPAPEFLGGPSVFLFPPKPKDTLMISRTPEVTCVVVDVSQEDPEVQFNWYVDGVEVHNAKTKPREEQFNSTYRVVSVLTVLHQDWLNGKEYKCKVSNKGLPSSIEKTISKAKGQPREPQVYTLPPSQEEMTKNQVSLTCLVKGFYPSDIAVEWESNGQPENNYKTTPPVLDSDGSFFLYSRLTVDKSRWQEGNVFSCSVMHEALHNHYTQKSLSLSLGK
# VL: B1 VL
# notes: Parental antibody as IgG4 S228P, made in CHO cells
# B9: anti-CD47 antibody IgG4PE-parental, CHO expressed (antibody)
# VH: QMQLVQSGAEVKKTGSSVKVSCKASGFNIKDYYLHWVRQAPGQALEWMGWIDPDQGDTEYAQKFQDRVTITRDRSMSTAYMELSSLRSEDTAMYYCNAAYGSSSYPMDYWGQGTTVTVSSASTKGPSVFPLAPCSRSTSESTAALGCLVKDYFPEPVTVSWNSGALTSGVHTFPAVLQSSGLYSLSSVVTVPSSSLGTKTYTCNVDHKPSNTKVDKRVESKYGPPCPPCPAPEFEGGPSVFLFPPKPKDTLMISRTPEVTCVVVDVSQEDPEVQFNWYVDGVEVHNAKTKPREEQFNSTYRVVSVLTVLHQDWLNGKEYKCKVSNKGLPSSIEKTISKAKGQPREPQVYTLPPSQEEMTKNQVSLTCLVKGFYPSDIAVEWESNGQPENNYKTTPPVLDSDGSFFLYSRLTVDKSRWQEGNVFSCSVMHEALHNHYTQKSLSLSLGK
# VL: B1 VL
# notes: Parental antibody as IgG4 S228P/L235E, made in CHO cells; also called IgG4-PE CHO; CHO IgG4PE
# B10: Anti-CD47 CF Control (antibody, V domains shown)
# VH: QMQLVQSGAEVKKTGSSVKVSCKASGFNIKDYYLHWVRQAPGQALEWMGWIDPDQGDTEYAQKFQDRVTITRDRSMSTAYMELSSLRSEDTAMYYCNAAYGSSSYPMDYWGQGTTVTV
# VL: NIQMTQSPSAMSASVGDRVTITCKASQDIHRYLSWFQQKPGKVPKHLIYRANRLVSGVPSRFSGSGSGTEFTLTISSLQPEDFATYYCLQYDEFPYTFGGGTKVEIK
# notes: also called Control Antibody; anti-CD47 control antibody
# B11: anti-CD47 antibody IgG4P-parental, cell-free expressed (antibody)
# heavy: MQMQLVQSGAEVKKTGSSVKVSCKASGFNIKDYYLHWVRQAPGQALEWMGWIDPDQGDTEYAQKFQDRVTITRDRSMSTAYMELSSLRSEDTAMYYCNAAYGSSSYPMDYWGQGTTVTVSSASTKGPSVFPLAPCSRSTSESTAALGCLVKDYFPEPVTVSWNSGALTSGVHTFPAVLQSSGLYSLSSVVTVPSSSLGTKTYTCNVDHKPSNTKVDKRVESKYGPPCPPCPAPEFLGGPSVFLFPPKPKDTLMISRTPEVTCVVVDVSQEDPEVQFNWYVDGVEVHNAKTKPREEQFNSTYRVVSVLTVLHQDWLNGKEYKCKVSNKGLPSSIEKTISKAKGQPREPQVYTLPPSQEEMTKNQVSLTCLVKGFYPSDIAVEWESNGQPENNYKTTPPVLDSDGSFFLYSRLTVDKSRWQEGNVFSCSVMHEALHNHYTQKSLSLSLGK
# light: B2 light
# notes: Parental variable domains on IgG4 S228P; cell-free system; also called IgG4P-parental-CF
# B12: anti-CD47 antibody IgG4PE-parental, cell-free expressed (antibody)
# heavy: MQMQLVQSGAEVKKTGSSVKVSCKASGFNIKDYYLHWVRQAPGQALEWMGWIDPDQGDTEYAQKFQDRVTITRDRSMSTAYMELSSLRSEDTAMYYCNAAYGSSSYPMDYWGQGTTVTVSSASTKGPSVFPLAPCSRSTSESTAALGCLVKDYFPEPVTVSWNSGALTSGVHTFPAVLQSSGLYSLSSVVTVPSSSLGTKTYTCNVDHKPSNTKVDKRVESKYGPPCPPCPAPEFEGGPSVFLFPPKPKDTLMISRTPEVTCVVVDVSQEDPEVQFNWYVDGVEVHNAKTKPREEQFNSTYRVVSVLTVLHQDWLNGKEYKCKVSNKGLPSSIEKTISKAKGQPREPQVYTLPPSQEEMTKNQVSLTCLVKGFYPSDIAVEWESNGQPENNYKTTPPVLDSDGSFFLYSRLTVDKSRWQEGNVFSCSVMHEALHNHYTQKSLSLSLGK
# light: B2 light
# notes: Parental variable domains on IgG4 S228P/L235E; cell-free system; also called IgG4PE-parental-CF
# Target: T1, human C1q (human, UniProt P02745 23-245; P02746 28-253; P02747 29-245)
# T1 construct: also called C1q (AbD Serotec 2221-5504)
# Assay: C1q binding ELISA, antibody coated and titrated from 133.4 nM, human C1q at 2 µg/mL, detected with anti-C1q HRP
# Procedure: (§1) Method: 96-well high protein binding ELISA plates (MaxSorp Nunc) were coated overnight at 4° C. with sample anti-CD47 antibody variants diluted in 0.05 M Sodium Bicarbonate Buffer (pH 9). Samples were diluted at a high concentration of 133.4 nM (20 μg/ml) and titrated 1:2 in an 11-point dilution curve. Plates were washed three times in PBS, 0.05% Tween 20 and blocked for 1 hour at room temperature with ELISA Diluent (0.1 M NAPO₄, 0.1 M NaCl, 0.1% gelatin, 0.05% Tween 20, 0.05% ProClin300). Plates were then washed again three times and incubated for two hours at room temperature with 2 μg/mL human C1q (AbD Serotec 2221-5504, 1 mg/mL stock) diluted in ELISA Diluent. Plates were then washed three times and incubated with sheep anti-human C1q HRP (AbD Serotec 2221-5004P) diluted 1:200 in ELISA Diluent for 1 hour at room temperature to detect bound Clq. Plates were then washed three times, then 100 μL of TMB solution was added. Reaction was quenched by adding 100 μl of 1M Phosphoric Acid and plate was read at 450 nm. Data are plotted using Prism6 as non-linear regression with log (inhibitor) vs. response—Variable slope (four parameters).
# T1 sequence (P02745 23-245 limits assumed, chain 1 of 3): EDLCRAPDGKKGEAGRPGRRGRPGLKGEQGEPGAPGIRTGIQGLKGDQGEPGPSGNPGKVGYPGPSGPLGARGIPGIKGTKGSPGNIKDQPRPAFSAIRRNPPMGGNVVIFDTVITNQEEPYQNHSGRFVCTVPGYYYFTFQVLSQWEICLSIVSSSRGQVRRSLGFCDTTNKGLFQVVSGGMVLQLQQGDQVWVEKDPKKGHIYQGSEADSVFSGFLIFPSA
# T1 sequence (P02746 28-253 limits assumed, chain 2 of 3): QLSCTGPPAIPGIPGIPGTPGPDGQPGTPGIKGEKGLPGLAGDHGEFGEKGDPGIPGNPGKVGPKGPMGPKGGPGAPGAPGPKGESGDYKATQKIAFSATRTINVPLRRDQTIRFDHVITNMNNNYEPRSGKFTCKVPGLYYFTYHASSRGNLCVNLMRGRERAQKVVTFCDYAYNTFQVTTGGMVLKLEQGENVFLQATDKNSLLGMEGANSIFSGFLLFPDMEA
# T1 sequence (P02747 29-245 limits assumed, chain 3 of 3): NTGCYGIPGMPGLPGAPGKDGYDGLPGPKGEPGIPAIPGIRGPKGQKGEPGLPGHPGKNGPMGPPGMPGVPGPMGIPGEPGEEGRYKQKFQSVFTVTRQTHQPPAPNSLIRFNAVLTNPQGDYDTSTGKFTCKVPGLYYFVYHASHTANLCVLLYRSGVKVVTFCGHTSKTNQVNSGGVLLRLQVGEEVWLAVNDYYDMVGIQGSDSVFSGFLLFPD
row,Binder,EC50 [nM]
1,B1,3.6

# Target: T2, human CD47 on CCRF-CEM cells (human, UniProt Q08722 19-323)
# T2 construct: Endogenous CD47 on the human T lymphoblast line CCRF-CEM (ATCC CCL-119); also called CD47-positive CCRF-CEM cells; CCRF-EM cells
# Assay: flow cytometry on CCRF-CEM cells, MFI against concentration, one site specific binding with Hill slope
# Procedure: To obtain binding curves, sample variants were titrated 1:2 in FACS buffer (PBS 2% FCS) starting from a high concentration of ˜66 nM for each sample. 0.1×10⁶ CCRF-EM cells were plated in a 96 well plate and incubated in 50 μl FACS buffer containing the indicated concentration of sample variants for 1 hour in ice. Cells were then washed with 150 μ1 FACS buffer and incubated in 50 μl FACS buffer containing the secondary antibody (anti-human-IgG-PE, Jackson ImmunoResearch) diluted 1:100, for 1 hr in ice. Cells were then washed with FACS buffer and fixed in 2% PFA for acquisition with LSR II, DB flow cytometer (BD Biosciences, San Jose, Calif.). Flow Cytometry analysis was performed using FloJo software Version 9.6.4. To obtain titration curves and Kd, Mean Fluorescence Intensity (MFI) values were plotted against concentration (nM). Kd values were calculated using Prism 6, Non linear regression curve fit analysis, One Site Specific Binding with Hill Slope.
row,Binder,Kd [nM]
1,B2,0.15
2,B3,0.12
3,B4,0.21
4,B5,0.14
5,B6,0.14
6,B1,0.18
7,B7,0.14
8,B8,0.18
9,B9,0.21

# Target: T3, human CD47 antigen (human, UniProt Q08722 19-139, limits assumed)
# T3 construct: also called CD47 analyte
# Assay: SPR (Biacore), antibody captured on anti-human Fc, human CD47 as analyte 3.125-50 nM, 1:1 model
# Procedure: (§2) Immobilization: Anti-human Fc (AHC) surfaces were prepared by amine-coupling monoclonal mouse anti-human Fc IgG (included in the Biacore Human Antibody Capture Kit, GE Life Sciences Cat #BR-1008-39) to a Biacore CM5 sensor chip surface. The running buffer for the immobilization procedure was HBS-EP+ (10 mM HEPES, 150 mM NaCl, 3 mM EDTA, 0.05% v/v P-20 as surfactant). The following was performed in all four flow cells to prepare surfaces amine-coupled anti-human Fc IgG. The CM5 chip surface was activated by injecting a 1:1 (v/v) mixture of 400 mM EDC and 100 mM NHS for 7 minutes at 10 μL/min. Following this treatment, anti-human IgG was diluted to 25 μg/mL in 10 mM sodium acetate buffer pH 5.0, and injected over all the flow cells at 10 μL/min for 7 minutes. Then, Ethanolamine was injected at 10 μL/min for 7 minutes to block all the surfaces.
# (§3) Kinetic Assays: For kinetic assays anti-CD47 antibodies were captured onto the anti-human Fc surfaces (surface preparation described above). For capture of the antibodies with human Fc, the antibodies were diluted to 10 μg/mL in HBS-EP+ running buffer. The antibody variants were immobilized by flowing over flow cell 2, 3 or 4 at a flow rate of 10 uL/min for 12 seconds. The analyte (human CD47 antigen) was diluted into running buffer to prepare a serial dilution series created with a 2-fold dilution factor to give concentrations of 3.125, 6.25, 12.5, 25 and 50 nM. After anti-CD47 antibody capture, the CD47 analyte was injected over the flow cells for 180 seconds (3 minutes) at 50 μL/min, and complex dissociation was monitored for 900 seconds (15 minutes). Buffer blanks were also run, and were used to reference the analyte binding data before fitting. Anti-human Fc surfaces were regenerated with two 30-second injections of 3M MgCl₂ at 30 uL/min between each analyte binding cycle.
# (§4) Kinetic data analysis: Experimental data for a given antibody—antigen interaction were fit using the 1:1 binding model, using global Rₘₐₓ, global kₐ (association), global kd (dissociation) parameters, and constant RI (bulk refractive index) parameters.
Binder,Kd [nM],koff [s⁻¹],kon [M⁻¹ s⁻¹]
B3,4.09,0.0026,636000
B5,3.6,0.00254,704000
B6,4.27,0.00254,594000
B10,3.16,0.00231,732000

# Target: T3, human CD47 antigen
# Assay: SPR (Biacore), experimental Rmax against theoretical Rmax, stoichiometry 2
# Procedure: as §3
# Kinetic data analysis: Experimental data for a given antibody—antigen interaction were fit using the 1:1 binding model, using global Rₘₐₓ, global kₐ (association), global kd (dissociation) parameters, and constant RI (bulk refractive index) parameters. Fraction activity (% ligand activity) was determinined using the following formula to calculate the relationship between the theoretical Rₘₐₓ (Rₘₐₓ Theo) and the experimental Rₘₐₓ (Rₘₐₓ exp). In the formula, stoichiometry represents the instances of interaction between antibody and antigen, for instance, when the antibody is the ligand, each of the antibody arms can interact with antigen, thus the stoichiometry is 2.
row,Binder,% Ligand activity [%]
1,B3,37.4
2,B5,38.2
3,B6,39.2
4,B10,39.4

# Target: T3, human CD47 antigen
# Assay: SPR (Biacore): antibody captured on anti-human Fc CM5 chip, human CD47 as analyte at 3.125-50 nM, 1:1 Binding model; the text says this fit is not reliable
# Procedure: as §2, §3, §4
Binder,Kd [nM],koff [s⁻¹],kon [M⁻¹ s⁻¹]
B2,4.21,0.00398,946000
B4,4.91,0.00404,824000

# Target: T1, human C1q
# Assay: C1q binding ELISA, antibody coated and titrated, bound human C1q detected with anti-C1q HRP; NA = do not show activity
# Procedure: as §1
row,Binder,binding result
1,B2,no binding
2,B3,no binding
3,B4,no binding
4,B5,no binding
5,B6,no binding
6,B7,no binding
7,B8,no binding
8,B9,no binding
9,B11,no binding
10,B12,no binding
